# Laboratory results published in patent publication US20220088221A1, “SELF-ASSEMBLED PEPTIDE NANOPARTICLE AND USE THEREOF” (THE METHODIST HOSPITAL, priority 2019, published 2022).
# “Also recorded” adds a separate entry of the source. Where two headings read alike, the source gives them in different places.
# Test: Self-assembly and size of CPP-peptide/TLR ligand nanoparticles (DLS, AFM)
# Format: physicochemical
# Protocol: FIG. 3A-1, FIG. 3A-2, FIG. 3B-1, FIG. 3B-2, FIG. 3C-1 and FIG. 3C-2 show self-assembled nanoparticles of TAT-TRP2 with CpG and MPLA (CM for short). […] AFM analysis indicates the size of cross section of the nanoparticle;
# Grey bars indicate unstable/polydispersed complex with large PDI (PDI>0.5);
# While both CPP-antigen peptide (10 mM) and CpG (10 mM) were soluble in PBS, but once mixed (1:1), precipitations or aggregates were observed. These aggregates were round nanoparticles, with a diameter of […] in size. The self-assembly was believed to occur through electric interaction of positively charged CPPs with negatively charged molecules, as well as hydrophobic interaction between the peptides themselves and monophosphoryl lipid A (MPLA).
# MPLA and poly I:C were completely dissolved in sterile ultrapure water at a concentration of 1 mg/mL. To prepare the TAT-peptide vaccine nanoparticles, CpG, MPLA, and poly I:C of indicated volume (shown in Table 3) were mix thoroughly in ultrapure water or buffer by intensive vortex.
# Self-assembly of the TAT-peptide nanoparticles was triggered by dropwise addition of TAT-peptide with ultrasonication in iced water bath within 1 min. […] The hydrophobic C-terminus of TRP2 peptide forms a hydrophobic core together with the MPLA via hydrophobic interactions.
# Grey bars indicate unstable/polydispersed complexes with large PDI (PDI>0.5).
Sequence,complex / nanoparticle formation with CpG and MPLA (AFM),complex / nanoparticle formation with CpG and MPLA (AFM) (listed as TRP2)
SYVDFFVWL [TRP2 peptide],failed to form complex with CpG-MPLA and formed long fibers; also recorded: failed to form complexes,could not form a particle
YGRKKRRQRRRSYVDFFVWL [TAT-TRP2],formed tight complexes,–
